Experimental data taken from patent US20260125457A1 (Janssen / Centocor, published 2026).

Experiments:
[1] = target: T1, wild-type CALR (CALRW14.001) (UniProt P27797 18-417, limits assumed); test: SPR
T1 sequence (looked up): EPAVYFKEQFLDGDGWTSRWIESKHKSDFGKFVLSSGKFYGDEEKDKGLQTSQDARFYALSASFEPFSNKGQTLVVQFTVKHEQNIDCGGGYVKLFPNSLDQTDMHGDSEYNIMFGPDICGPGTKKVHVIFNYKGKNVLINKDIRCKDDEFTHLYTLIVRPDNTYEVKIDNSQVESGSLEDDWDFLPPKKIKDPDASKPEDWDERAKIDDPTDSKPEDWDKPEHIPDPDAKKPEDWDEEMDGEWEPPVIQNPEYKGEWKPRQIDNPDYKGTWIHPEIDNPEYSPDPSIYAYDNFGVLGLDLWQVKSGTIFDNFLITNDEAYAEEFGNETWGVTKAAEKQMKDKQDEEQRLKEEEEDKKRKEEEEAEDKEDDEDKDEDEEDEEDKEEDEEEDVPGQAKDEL

[2] = target: T2, Flag/6xhis-CALRdel52 (CALRW12.007) (human, UniProt P27797 18-417); test: SPR
T2 construct: also called human CALRdel52
T2 sequence (looked up): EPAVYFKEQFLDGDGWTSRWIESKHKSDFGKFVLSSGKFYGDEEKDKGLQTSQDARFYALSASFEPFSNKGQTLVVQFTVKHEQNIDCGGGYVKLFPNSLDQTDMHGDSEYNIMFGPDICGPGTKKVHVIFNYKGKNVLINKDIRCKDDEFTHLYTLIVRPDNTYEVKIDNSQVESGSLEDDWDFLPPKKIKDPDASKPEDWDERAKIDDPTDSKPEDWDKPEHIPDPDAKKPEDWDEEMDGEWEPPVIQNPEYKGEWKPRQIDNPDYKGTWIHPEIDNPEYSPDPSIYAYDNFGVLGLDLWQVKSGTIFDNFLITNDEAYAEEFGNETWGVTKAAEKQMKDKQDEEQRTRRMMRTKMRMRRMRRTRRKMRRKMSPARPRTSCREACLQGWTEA

[3] = target: T3, Avi/his-CalR-Ins5 (CALRW28.004) (human, UniProt P27797 18-417, limits assumed); test: SPR
T3 construct: also called human CALRins5
T3 sequence (looked up): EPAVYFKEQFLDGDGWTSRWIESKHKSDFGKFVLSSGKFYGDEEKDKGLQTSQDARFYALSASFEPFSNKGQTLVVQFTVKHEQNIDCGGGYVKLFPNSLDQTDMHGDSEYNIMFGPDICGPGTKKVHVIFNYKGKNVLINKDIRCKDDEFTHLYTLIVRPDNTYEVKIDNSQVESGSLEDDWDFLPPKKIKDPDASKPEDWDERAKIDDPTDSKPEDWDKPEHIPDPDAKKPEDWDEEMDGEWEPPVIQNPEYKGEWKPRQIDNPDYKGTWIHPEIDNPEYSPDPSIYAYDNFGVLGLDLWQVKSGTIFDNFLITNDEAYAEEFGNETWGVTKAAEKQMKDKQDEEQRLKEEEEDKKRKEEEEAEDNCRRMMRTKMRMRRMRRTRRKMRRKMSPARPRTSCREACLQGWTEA

[4] = target: T4, CD3EG-HSA-6xHis (CD3W220.002) (human, UniProt P07766 22-118; P09693 23-103); test: SPR
T4 construct: also called human CD3; not shown: human serum albumin (HSA); 6xHis tag
T4 sequence (P07766 other isoform, or with tags, fused parts or gaps): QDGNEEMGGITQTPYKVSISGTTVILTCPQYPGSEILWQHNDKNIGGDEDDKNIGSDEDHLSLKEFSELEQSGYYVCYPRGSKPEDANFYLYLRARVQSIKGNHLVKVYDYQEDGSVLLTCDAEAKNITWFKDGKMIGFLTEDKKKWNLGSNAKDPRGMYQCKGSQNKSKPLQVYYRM

[5] = target: T5, CALRdel52 (mutant calreticulin, 52 base pair deletion, Type 1) expressed with MPL on engineered cancer cells (UniProt P27797 18-417); test: cell-based or functional assay
T5 sequence (looked up): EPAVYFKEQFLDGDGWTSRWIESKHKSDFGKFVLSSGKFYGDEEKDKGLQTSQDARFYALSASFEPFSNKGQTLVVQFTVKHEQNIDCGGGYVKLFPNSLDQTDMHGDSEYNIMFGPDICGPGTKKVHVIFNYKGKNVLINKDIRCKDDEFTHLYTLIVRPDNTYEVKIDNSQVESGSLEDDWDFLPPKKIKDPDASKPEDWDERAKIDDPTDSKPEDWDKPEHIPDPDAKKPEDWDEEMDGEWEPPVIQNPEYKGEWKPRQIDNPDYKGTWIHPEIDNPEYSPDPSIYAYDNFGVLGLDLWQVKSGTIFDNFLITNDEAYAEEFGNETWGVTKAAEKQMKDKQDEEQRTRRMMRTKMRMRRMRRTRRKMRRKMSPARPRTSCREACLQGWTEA

[6] = target: T6, CALRins5 (mutant calreticulin, 5 base pair insertion, Type 2) expressed with MPL on engineered cancer cells (UniProt P27797 18-417); test: cell-based or functional assay
T6 sequence (looked up): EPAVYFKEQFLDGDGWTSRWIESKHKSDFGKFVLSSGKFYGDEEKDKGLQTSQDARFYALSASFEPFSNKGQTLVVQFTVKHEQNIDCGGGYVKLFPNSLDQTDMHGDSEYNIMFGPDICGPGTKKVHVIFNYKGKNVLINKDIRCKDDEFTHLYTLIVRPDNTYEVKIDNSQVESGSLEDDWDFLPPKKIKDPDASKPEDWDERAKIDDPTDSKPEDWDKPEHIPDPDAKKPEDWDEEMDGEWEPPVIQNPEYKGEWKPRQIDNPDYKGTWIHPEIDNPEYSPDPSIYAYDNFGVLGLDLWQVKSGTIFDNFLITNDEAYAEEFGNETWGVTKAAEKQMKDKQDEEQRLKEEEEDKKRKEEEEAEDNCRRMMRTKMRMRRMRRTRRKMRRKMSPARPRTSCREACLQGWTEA

[7] = target: T5, CALRdel52 (mutant calreticulin, 52 base …); test: cell-based or functional assay; remark: listed apart in the source
[8] = target: T6, CALRins5 (mutant calreticulin, 5 base …); test: cell-based or functional assay; remark: listed apart in the source
human FcRn = target: T7, human FcRn (human, UniProt P55899 24-297; P61769 21-119, limits assumed); test: FcRn binding, method not stated
T7 construct: Beta-2-microglobulin is not mentioned
T7 sequence (P55899 24-297 limits assumed, chain 1 of 2): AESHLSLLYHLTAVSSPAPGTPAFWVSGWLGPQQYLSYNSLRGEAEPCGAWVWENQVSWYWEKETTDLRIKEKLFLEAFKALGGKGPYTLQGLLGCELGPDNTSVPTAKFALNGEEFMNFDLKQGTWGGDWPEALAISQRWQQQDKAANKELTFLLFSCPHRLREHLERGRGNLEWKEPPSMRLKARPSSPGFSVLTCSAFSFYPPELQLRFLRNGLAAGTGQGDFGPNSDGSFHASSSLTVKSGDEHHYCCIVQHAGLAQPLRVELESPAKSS
T7 sequence (P61769 21-119 limits assumed, chain 2 of 2): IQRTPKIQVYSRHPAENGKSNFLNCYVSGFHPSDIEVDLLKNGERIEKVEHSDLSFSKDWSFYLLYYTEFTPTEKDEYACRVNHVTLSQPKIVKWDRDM

cyno FcRn = cyno FcRn (cynomolgus monkey, UniProt Q8SPV9 24-297; Q8SPW0 21-119, limits assumed); test: FcRn binding, method not stated
cyno FcRn, sequence (Q8SPV9 24-297 limits assumed, chain 1 of 2): as the sequence (P55899 24-297 limits assumed, chain 1 of 2) above, with N39D, E44Q, G99S, S189G, S190N, L217M, S269T counted along it
cyno FcRn, sequence (Q8SPW0 21-119 limits assumed, chain 2 of 2): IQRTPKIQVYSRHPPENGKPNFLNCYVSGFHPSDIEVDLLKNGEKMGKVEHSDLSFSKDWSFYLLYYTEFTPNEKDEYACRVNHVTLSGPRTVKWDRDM

[9] = target: T2, Flag/6xhis-CALRdel52 (CALRW12.007); test: SPR, forced degradation: Thermal
[10] = target: T3, Avi/his-CalR-Ins5 (CALRW28.004); test: SPR, forced degradation: Thermal
[11] = target: T4, CD3EG-HSA-6xHis (CD3W220.002); test: SPR, forced degradation: Thermal
[12] = target: T8, CD3 on primary human pan T cells (human, UniProt P07766 23-207); test: flow cytometry on pan CD3 T cells, 1 h at 37 C, AF647 secondary antibody, Geometric Mean
T8 construct: whole, on cells; also called CD3e; CD3ε
T8 sequence (P07766 23-207): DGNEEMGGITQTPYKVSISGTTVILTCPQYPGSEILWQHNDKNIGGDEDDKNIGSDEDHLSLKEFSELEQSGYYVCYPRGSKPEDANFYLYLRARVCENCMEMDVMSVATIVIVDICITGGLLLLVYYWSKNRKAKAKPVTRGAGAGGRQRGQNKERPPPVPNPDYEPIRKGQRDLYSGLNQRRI

B1: C3CRB73 CALRmut x CD3 bispecific antibody (bispecific antibody, human IgG1, kappa, L234A L235A)
heavy: EVQLLESGGGLVQPGGSLRLSCAVSGIDLSNNAISWVRQAPGKGLEYVGVIGNTGDTYYADSAKGRFTISRDSSKTTLYLQMNSLRAEDTAVYFCVRGPPSYSSSVKNIWGQGTLVTVSSASTKGPSVFPLAPSSKSTSGGTAALGCLVKDYFPEPVTVSWNSGALTSGVHTFPAVLQSSGLYSLSSVVTVPSSSLGTQTYICNVNHKPSNTKVDKKVEPKSCDKTHTCPPCPAPEAAGGPSVFLFPPKPKDTLMISRTPEVTCVVVSVSHEDPEVKFNWYVDGVEVHNAKTKPREEQYNSTYRVVSVLTVLHQDWLNGKEYKCKVSNKALPAPIEKTISKAKGQPREPQVYTLPPSREEMTKNQVSLSCAVKGFYPSDIAVEWESNGQPENNYKTTPPVLDSDGSFFLVSKLTVDKSRWQQGNVFSCSVMHEALHNRFTQKSLSLSPGK
light: DIQMTQSPSSVSASVGDRVTITCQSSQSVYNNNWLSWLQQKPGKAPKRLIYDASKLESGVPSRFSGSGSGTDFTLTISSVQPEDAATYYCAGGFTGNVYTFGGGTKVEIKRTVAAPSVFIFPPSDEQLKSGTASVVCLLNNFYPREAKVQWKVDNALQSGNSQESVTEQDSKDSTYSLSSTLTLSKADYEKHKVYACEVTHQGLSSPVTKSFNRGEC
scFv: DIQMTQSPSSLSASVGDRVTITCRARQSIGTAIHWYQQKPGCAPKLLIKYASESISGVPSRFSGSGSGTDFTLTISSLQPEDFATYYCQQSGSWPYTFGQGTKLEIKGGGSGGSGGCPPCGGSGGEVQLVESGGGLVKPGGSLRLSCAASGFTFSRYNMNWVRQAPGKGLEWVSSISTSSNYIYYADSVKGRFTFSRDNAKNSLDLQMSGLRAEDTAIYYCTRGWGPFDYWGCGTLVTVSSEPKSSDKTHTCPPCPAPEAAGGPSVFLFPPKPKDTLMISRTPEVTCVVVSVSHEDPEVKFNWYVDGVEVHNAKTKPREEQYNSTYRVVSVLTVLHQDWLNGKEYKCKVSNKALPAPIEKTISKAKGQPREPQVYTLPPSREEMTKNQVSLWCLVKGFYPSDIAVEWESNGQPENNYKTTPPVLDSDGSFFLYSKLTVDKSRWQQGNVFSCSVMHEALHNHYTQKSLSLSPGK
notes: IgG1-AAS; also called JNJ-88549968; CALRB421 Fab x CD3 spFv
binding result [1]: no binding (tested: 300 nM)
Kd [2]: 0.0602 nM
Kd [3]: 0.0331 nM
Kd [4]: 0.214 nM
T cell-mediated cytotoxicity EC50 (nM), ELF-153 MPL CALRdel52 [5]: 0.034 nM
T cell-mediated cytotoxicity EC50 (nM), OCI-M2 MPL CALRdel52 [5]: 0.61 nM
T cell-mediated cytotoxicity EC50 (nM), ELF-153 MPL CALRins5 [6]: 0.094 nM
T cell-mediated cytotoxicity EC50 (nM), OCI-M2 MPL CALRins5 [6]: 1.69 nM
cytotoxicity EC50 (nM), whole blood of CALRmut MPN patients, ELF-153 MPL CALRdel52 [7]: 0.66 nM
cytotoxicity EC50 (nM), whole blood of healthy donors, ELF-153 MPL CALRdel52 [7]: 0.51 nM
cytotoxicity EC50 (nM), whole blood of CALRmut MPN patients, ELF-153 MPL CALRins5 [8]: 0.64 nM
cytotoxicity EC50 (nM), whole blood of healthy donors, ELF-153 MPL CALRins5 [8]: 0.32 nM
Kd (human FcRn): 1900 nM
Kd (cyno FcRn): 900 nM
% Active [9]: 98%
Kd [9]: 0.0664 nM
% Active [10]: 94%
Kd [10]: 0.0357 nM
% Active [11]: 94%
Kd [11]: 0.225 nM
EC50 (read off the curve) [12]: ~7 nM
